Where a chain is given by its changes, count along the chain named. Numbers in names are those of the source.
B1: UniBody molecule of antibody 024 (other)
VH: EVQLLESGGGLVQPGGSLRLSCVASGFTFSSYAMSWVRQAPGKGLEWVSAISGSSGGSTYYVDSVKGRFTISRANSKNTLYLQMNSLRAEDTAVYYCAKDLDRGWMGYFGYWGQGTLVTVSS
VL: DIQMTQSPSSVSASVGDRVTITCRASQGISSWLAWYQHKPGKAPKLLIYAASSLQSGVPSRFSGSGSGTDFTLTISSLQPEDFATYYCQQANSFPTFGQGTRLEIK
B2: Uni-1016-045-TE (other)
VH: EVQLLESGGGLVQPGGSLRLSCAASGFTFSSYAMSWVRQAPGKGLEWVSVISGSGGITYYADSVKGRFTISRDNSKNTLYLQMNSLRAEDTAVYYCARDRGWGSDYWGQGTLVTVSS
VL: EIVLTQSPATLSLSPGERATLSCRASQSVSSYLAWYQQKPGQAPRLLIYDASNRATGIPARFSGSGSGTDFTLTISSLEPEDFAVYYCQQRSNWPFTFGPGTKVDIK
notes: also called UniBody molecule of antibody 045
B3: UniBody molecule of antibody 035 (other)
VH: EVQLVQSGAEVKKPGESLKISCKGSGYSFTSYWIGWVRQMPGKGLEWMGIIYPGDSDTRYSPSFQGQVTISADKSISTAYLQWNSLKASDTAMYYCARQEITGEFDYWGQGTLVTVSS
VL: AIQLTQSPSSLSASVGDRVTITCRASQGISSALAWYQQKPGKAPKLLIYDASSLESGVPSRFSGSGSGTDFTLTISSLQPEDFATYYCQQFNSYPMYTFGQGTKLEIK
B4: Uni-1016-069-TE (other)
VH: QVQLVQSGAEVKKPGASVKVSCETSGYTFTSYGISWVRQAPGHGLEWMGWISAYNGYTNYAQKLQGRVTMTTDTSTSTAYMELRSLRSDDTAVYYCARDLRGTNYFDYWGQGTLVTVSS
VL: DIQMTQSPSSVSASVGDRVTITCRASQGISNWLAWFQHKPGKAPKLLIYAASSLLSGVPSRFSGSGSGTDFTLTISSLQPEDFATYYCQQANSFPITFGQGTRLEIK
notes: also called UniBody molecule of antibody 069
B5: UniBody molecule of antibody 181 (other)
VH: B4 VH with E23K, T24A, H43Q, A53T, N104A
VL: B4 VL with F36Y
B6: UniBody molecule of antibody 098 (other)
VH: QVQLVQSGAEVKKPGASVKVSCKASGYTFTNFGISWVRQAPGQGLEWMGWISAFNGHTDYSQKVQGRVTMTTDTSTSTAYMELRSLRSDDTAVFYCARSHYYGSGSPFDYWGQGTLVTVSS
VL: DIQMTQSPSSLSASVGDRVTITCRASQGISNWLAWYQQKPEKAPKSLIYAASSLQSGVPSRFSGSGSGTDFTLTISSLQPEDFATYYCHQYKSYPWTFGQGTKVEIK
B7: Uni-IgG1-1016-069 (antibody, V domains shown)
VH: B4 VH
VL: B4 VL
notes: human kappa; also called Hinge deleted IgG1 (Uni-IgG1) of 069; UniBody-IgG1
B8: IgG1-1016-069 TH7Δ6-9 (antibody, V domains shown)
VH: B4 VH
VL: B4 VL
notes: human kappa; also called IgG1 TH7Δ6-9 mutant of 069
B9: IgG1-1016-069-Hinge IgG3 (antibody, V domains shown)
VH: B4 VH
VL: B4 VL
notes: also called IgG1 Hinge-IgG3 variant of 069
B10: IgG1-1016-069-Hinge IgG2 (antibody, V domains shown)
VH: B4 VH
VL: B4 VL
notes: human kappa; also called IgG1 Hinge-IgG2 variant of 069
B11: IgG1-1016-069-C220S (antibody, V domains shown)
VH: B4 VH
VL: B4 VL
notes: human kappa; also called IgG1 C220S mutant of 069
B12: IgG2-1016-069 (antibody, V domains shown)
VH: B4 VH
VL: B4 VL
notes: IgG2 format of clone 069; also called IgG2 backbone variant of 069
B13: IgG1-1016-069-ΔC220 (antibody, V domains shown)
VH: B4 VH
VL: B4 VL
notes: human kappa; also called IgG1 ΔC220 mutant of 069
B14: UniBody molecule of antibody 008 (other)
VH: B3 VH with D57E, N84S
VL: AIQLTQSPSSLSASVGDRVTITCRASQGISSALAWYQQKPGKAPKLLIYDASSLESGVPSRFSGSGSGTDFTLTISSLQPEDFATYYCQQFNSYPRTFGQGTKVEIK
B15: Uni-1016-005 (other)
VH: QVQLVQSGAEVKKPGSSVKVSCKASGGTFSSYGFGWVRQAPGQGLEWMGRISPILGIANYAQMFQGRVTITADKSTSTAYMELSSLRSEDTAVYYCARDVGYDWPDTFDIWGQGTMVIVSS
VL: B6 VL with N31S, S65G, H89Q, K92N, Y94F, W96P
notes: also called UniBody molecule of antibody 005

These binders were tested against T1, human c-Met, membrane-bound on cells (human, UniProt P08581 25-1390) (assay: flow cytometry on A431 cells (PE goat anti-human IgG); third panel).
T1 construct: whole, on cells; A431 cells carry on average 30,000 copies of c-Met per cell (Qifi); also called c-Met expressed on A431 cells; c-Met on A549 cells
T1 sequence (P08581 25-1390): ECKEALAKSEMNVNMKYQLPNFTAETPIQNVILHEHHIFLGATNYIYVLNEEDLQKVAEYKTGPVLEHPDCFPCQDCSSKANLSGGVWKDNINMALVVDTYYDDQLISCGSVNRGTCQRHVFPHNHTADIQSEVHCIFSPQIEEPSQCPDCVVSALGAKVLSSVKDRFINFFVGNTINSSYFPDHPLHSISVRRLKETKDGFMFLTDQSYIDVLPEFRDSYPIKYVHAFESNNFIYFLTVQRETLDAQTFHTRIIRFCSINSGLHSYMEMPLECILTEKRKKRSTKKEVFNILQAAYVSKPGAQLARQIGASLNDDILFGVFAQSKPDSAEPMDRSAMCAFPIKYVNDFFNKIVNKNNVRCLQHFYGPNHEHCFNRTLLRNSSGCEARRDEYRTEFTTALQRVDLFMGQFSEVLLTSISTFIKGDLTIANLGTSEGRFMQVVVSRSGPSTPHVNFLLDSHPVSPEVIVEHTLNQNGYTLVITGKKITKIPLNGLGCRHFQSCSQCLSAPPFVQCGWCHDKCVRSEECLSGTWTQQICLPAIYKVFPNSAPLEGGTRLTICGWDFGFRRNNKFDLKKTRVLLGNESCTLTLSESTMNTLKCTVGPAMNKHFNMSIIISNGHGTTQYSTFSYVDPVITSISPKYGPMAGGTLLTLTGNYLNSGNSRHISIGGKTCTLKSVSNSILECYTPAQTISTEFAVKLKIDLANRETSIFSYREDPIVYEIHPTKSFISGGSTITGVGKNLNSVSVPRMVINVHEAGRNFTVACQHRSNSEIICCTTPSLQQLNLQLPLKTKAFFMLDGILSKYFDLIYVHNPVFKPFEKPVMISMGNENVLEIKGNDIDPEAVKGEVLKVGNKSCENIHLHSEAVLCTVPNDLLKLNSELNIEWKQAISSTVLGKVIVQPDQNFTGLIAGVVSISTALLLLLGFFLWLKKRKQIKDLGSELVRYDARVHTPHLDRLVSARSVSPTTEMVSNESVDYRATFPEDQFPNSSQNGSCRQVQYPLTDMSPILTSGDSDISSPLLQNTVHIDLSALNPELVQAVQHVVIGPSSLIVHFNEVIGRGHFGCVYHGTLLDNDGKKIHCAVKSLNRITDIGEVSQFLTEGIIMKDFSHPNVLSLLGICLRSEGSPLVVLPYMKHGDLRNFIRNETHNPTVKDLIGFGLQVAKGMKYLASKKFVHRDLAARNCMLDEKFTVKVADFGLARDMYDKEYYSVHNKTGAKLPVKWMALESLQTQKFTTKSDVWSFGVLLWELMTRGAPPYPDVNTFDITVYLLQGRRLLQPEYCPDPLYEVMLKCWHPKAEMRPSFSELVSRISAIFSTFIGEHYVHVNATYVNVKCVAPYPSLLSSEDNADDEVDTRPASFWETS
Experimental: (§1) The binding of anti-c-Met antibodies and monovalent forms thereof (also termed “UniBody molecules” herein, see Example 5) to A431 cells expressing membrane-bound c-Met (purchased at ATCC, CRL-1555) was tested using flow cytometry (FACS Canto II, BD Biosciences). […] Binding of anti-c-Met antibodies and UniBody molecules was detected using a Phycoerythrin-conjugated goat-anti-human IgG antibody (Jackson). IgG1-5D5 was used as positive control antibody, and HuMab-KLH was used as isotype control antibody. EC₅₀ values were determined by means of non-linear regression (sigmoidal dose-response with variable slope) using GraphPad Prism V4.03 software (GraphPad Software, San Diego, Calif., USA).
(§2) Also maximum binding levels were unchanged between IgG1's and UniBody molecules. For antibodies 005, 006, 008, 035, 045 and 058, on the other hand, a more than 2-fold […] as well as a decrease in maximum binding level was observed when comparing IgG1 with their UniBody counterpart. This was most likely due to the […] (Kd) of these antibodies (see Example 14).

First: B1
Second: B2
The EC50 of the first is 5-fold lower: 2.42 nM for the first, 12.2 nM for the second. The first is the more potent here.

B3 gave an EC50 of 9.32 nM.

These binders were tested against T1, human c-Met, membrane-bound on cells (assay: flow cytometry on A431 cells (PE goat anti-human IgG); bottom panel).
Experimental: as §1, §2

B4 and B5 are within 1.5-fold of each other in EC50: 0.6 nM for the first, 0.847 nM for the second.

B6 showed an EC50 of 1.16 nM.

The binders below were run against T2, rhHGF R/Fc Chimera (R&D Systems; Cat.358MT/CF) (human, UniProt P08581 25-932) (assay: ELISA on coated rhHGF R/Fc Chimera).
T2 construct: Bought reagent; Fc part of the bought chimera not given; not described
T2 sequence (P08581 25-932, change not shown): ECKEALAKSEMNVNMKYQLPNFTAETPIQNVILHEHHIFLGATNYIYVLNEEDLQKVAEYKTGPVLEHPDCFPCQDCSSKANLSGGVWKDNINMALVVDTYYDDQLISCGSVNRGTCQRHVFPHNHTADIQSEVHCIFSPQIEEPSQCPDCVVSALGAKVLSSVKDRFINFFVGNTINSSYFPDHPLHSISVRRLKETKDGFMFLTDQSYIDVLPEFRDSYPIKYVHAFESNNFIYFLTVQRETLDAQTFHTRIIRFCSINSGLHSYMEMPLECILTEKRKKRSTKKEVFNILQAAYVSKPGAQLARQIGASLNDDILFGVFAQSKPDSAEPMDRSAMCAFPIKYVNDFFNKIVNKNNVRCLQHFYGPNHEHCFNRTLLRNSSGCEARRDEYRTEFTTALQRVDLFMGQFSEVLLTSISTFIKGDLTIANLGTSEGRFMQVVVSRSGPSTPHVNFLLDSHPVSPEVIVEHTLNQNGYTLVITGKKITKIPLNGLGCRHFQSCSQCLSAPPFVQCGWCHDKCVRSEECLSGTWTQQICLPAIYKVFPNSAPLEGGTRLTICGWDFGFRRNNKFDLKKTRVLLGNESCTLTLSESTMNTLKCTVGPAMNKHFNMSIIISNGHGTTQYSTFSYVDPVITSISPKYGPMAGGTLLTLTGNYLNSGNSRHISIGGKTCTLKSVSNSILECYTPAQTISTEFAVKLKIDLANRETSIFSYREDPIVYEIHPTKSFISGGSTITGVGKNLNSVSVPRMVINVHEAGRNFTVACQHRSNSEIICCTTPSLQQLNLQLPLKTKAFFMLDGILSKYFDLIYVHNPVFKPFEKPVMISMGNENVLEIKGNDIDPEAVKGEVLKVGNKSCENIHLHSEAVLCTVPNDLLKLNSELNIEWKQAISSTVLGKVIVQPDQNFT
Experimental: c-Met binding properties of the mutants were tested in an ELISA. ELISA plate wells were coated overnight at 4° C. with rhHGF R/Fc Chimera (R&D Systems; Cat.358MT/CF) in PBS (1 μg/mL). Next, the wells were washed with PBST (PBS supplemented with 0.05% Tween-20 [Sigma-Aldrich, Zwijndrecht, The Netherlands]) and blocked for one hour at room temperature (RT) with PBSTC (PBST supplemented 2% [v/v] chicken serum [Gibco, Paisley, Scotland]). Subsequently, the wells were washed with PBST and incubated for one hour at RT with the anti-cMet antibodies and variants serially diluted in PBSTC (10 μg/mL in 4-fold dilutions). […] After washing, the reaction was visualized by a 15 min incubation with 2,2′-azino-bis(3-ethylbenzothiazoline-6-sulfonic acid) (ABTS: dilute one ABTS tablet in 50 mL ABTS buffer [Roche Diagnostics, Almere, The Netherlands]) at RT protected from light. The colorization was stopped by adding an equal volume of oxalic acid (Sigma-Aldrich, Zwijndrecht, The Netherlands). […] at 405 nm was measured on a microtiter plate reader (Biotek Instruments, Winooski, USA).

Compared with B4, B7 is 2-fold lower in EC50: 0.0301 µg/mL for the first, 0.0154 µg/mL for the second.

B8 and B9 are within 1.5-fold of each other in EC50: 0.0188 µg/mL for the first, 0.0142 µg/mL for the second.

B10 and B11 are within 1.5-fold of each other in EC50: 0.023 µg/mL for the first, 0.0156 µg/mL for the second.

First: B12
Second: B13
The EC50 of the first is 1.6-fold higher: 0.0296 µg/mL for the first, 0.0189 µg/mL for the second.

Each binder was assayed against T1, human c-Met, membrane-bound on cells (assay: flow cytometry on A431 cells).
Experimental: as §1, §2

First: B1
Second: B2
The “fold change of EC50, UniBody molecule against IgG1 of the identical clone” value (from here on “fold change of EC50, UniBody molecule”) of the first is lower: less than 2 fold for the first, greater than 2 fold for the second.

B14 and B3 cannot be ordered by “fold change of EC50, UniBody molecule” value: greater than 2 fold for the first, greater than 2 fold for the second.

B4 and B5 cannot be ordered by “fold change of EC50, UniBody molecule” value: less than 2 fold for the first, less than 2 fold for the second.

Going from B6 to B15, the “fold change of EC50, UniBody molecule” value rises from less than 2 fold to greater than 2 fold.

These binders were tested against T1, human c-Met, membrane-bound on cells (assay: flow cytometry on A431 cells (PE goat anti-human IgG); second panel).
Experimental: as §1, §2

First: B14
Second: B15
The EC50 of the first is 3.1-fold lower: 1.85 nM for the first, 5.8 nM for the second.
